Reference: patent US20210346432A1 (Memorial Sloan Kettering, published 2021)
No end group written: not given here. *: point of attachment. Biotin = O=C1N[C@H]2[C@H](CS[C@H]2CCCCC(=O)*)N1

T1: ET140-p11 (human, cysteine pairing not given here)
T1 construct: also called peptide 11; ET140-pll
T1 peptide: Biotin-SGSGEYFDSLLHACIPCQL

T2: ET140-p25 (human, cysteine pairing not given here)
T2 construct: also called peptide 25
T2 peptide: Biotin-SGSGLRCSSNTPPLTCQRY

T3: ET140-p4 (human)
T3 construct: also called peptide 4
T3 peptide: Biotin-SGSGAGQCSQNEYFDSLLH

T4: ET140-p19 (human, cysteine pairing not given here)
T4 construct: also called peptide 19
T4 peptide: Biotin-SGSGACIPCQLRCSSNTPP

T5: ET140-p12 (human, cysteine pairing not given here)
T5 construct: also called peptide 12
T5 peptide: Biotin-SGSGYFDSLLHACIPCQLR

T6: ET140-p31 (human, cysteine pairing not given here)
T6 construct: also called peptide 31
T6 peptide: Biotin-SGSGTPPLTCQRYCNASVT

T7: ET140-p9 (human, cysteine pairing not given here)
T7 construct: also called peptide 9
T7 peptide: Biotin-SGSGQNEYFDSLLHACIPC

T8: ET140-p3 (human)
T8 construct: also called peptide 3
T8 peptide: Biotin-SGSGMAGQCSQNEYFDSLL

T9: ET140-p10 (human, cysteine pairing not given here)
T9 construct: also called peptide 10
T9 peptide: Biotin-SGSGNEYFDSLLHACIPCQ

T10: ET140-p36 (human, cysteine pairing not given here)
T10 construct: also called peptide 36
T10 peptide: Biotin-SGSGCQRYCNASVTNSVKG

T11: ET140-p6 (human, cysteine pairing not given here)
T11 construct: also called peptide 6
T11 peptide: Biotin-SGSGQCSQNEYFDSLLHAC

T12: ET140-p27 (human, cysteine pairing not given here)
T12 construct: also called peptide 27
T12 peptide: Biotin-SGSGCSSNTPPLTCQRYCN

T13: ET140-p5 (human)
T13 construct: also called peptide 5
T13 peptide: Biotin-SGSGGQCSQNEYFDSLLHA

T14: ET140-p32 (human, cysteine pairing not given here)
T14 construct: also called peptide 32
T14 peptide: Biotin-SGSGPPLTCQRYCNASVTN

T15: ET140-p21 (human, cysteine pairing not given here)
T15 construct: also called peptide 21
T15 peptide: Biotin-SGSGIPCQLRCSSNTPPLT

T16: ET140-p28 (human, cysteine pairing not given here)
T16 construct: also called peptide 28
T16 peptide: Biotin-SGSGSSNTPPLTCQRYCNA

T17: ET140-p37 (human)
T17 construct: also called peptide 37
T17 peptide: Biotin-SGSGQRYCNASVTNSVKGT

T18: ET140-p13 (human, cysteine pairing not given here)
T18 construct: also called peptide 13
T18 peptide: Biotin-SGSGFDSLLHACIPCQLRC

T19: ET140-p26 (human, cysteine pairing not given here)
T19 construct: also called peptide 26
T19 peptide: Biotin-SGSGRCSSNTPPLTCQRYC

T20: ET140-p22 (human, cysteine pairing not given here)
T20 construct: also called peptide 22
T20 peptide: Biotin-SGSGPCQLRCSSNTPPLTC

T21: ET140-p17 (human, cysteine pairing not given here)
T21 construct: also called peptide 17
T21 peptide: Biotin-SGSGLHACIPCQLRCSSNT

T22: ET140-p20 (human, cysteine pairing not given here)
T22 construct: also called peptide 20
T22 peptide: Biotin-SGSGCIPCQLRCSSNTPPL

T23: ET140-p18 (human, cysteine pairing not given here)
T23 construct: also called peptide 18
T23 peptide: Biotin-SGSGHACIPCQLRCSSNTP


Key:
ET140-p11 [1] = biological target: T1, ET140-p11; assay: peptide ELISA, biotin peptide on streptavidin plate
Method: (§1) The peptides were coated onto Streptavidin plates at 2 ug/mL in PBST (PBS+0.05% Tween-20). After washing and blocking with 3% BSA. […] “mIgG1” used in all Examples represents that the variable region is fully human and the Fc part is mouse IgG1. Then HRP anti-mouse IgG detection antibody was added to each well. Finally, the color was developed using TMB substrate. A450 was recorded for data analysis.

ET140-p25 [2] = biological target: T2, ET140-p25; assay: as above
Method: as §1

ET140-p4 = biological target: T3, ET140-p4; assay: as above
Method: as §1

ET140-p19 [3] = biological target: T4, ET140-p19; assay: as above
Method: as §1

ET140-p12 [4] = biological target: T5, ET140-p12; assay: as above
Method: as §1

ET140-p31 [5] = biological target: T6, ET140-p31; assay: as above
Method: as §1

ET140-p9 = biological target: T7, ET140-p9; assay: as above
Method: as §1

ET140-p3 = biological target: T8, ET140-p3; assay: as above
Method: as §1

ET140-p10 = biological target: T9, ET140-p10; assay: as above
Method: as §1

ET140-p36 = biological target: T10, ET140-p36; assay: as above
Method: as §1

ET140-p6 [6] = biological target: T11, ET140-p6; assay: as above
Method: as §1

ET140-p27 [7] = biological target: T12, ET140-p27; assay: as above
Method: as §1

ET140-p5 = biological target: T13, ET140-p5; assay: as above
Method: as §1

ET140-p32 = biological target: T14, ET140-p32; assay: as above
Method: as §1

ET140-p11 [8] = biological target: T1, ET140-p11; assay: peptide ELISA on streptavidin plate, antibody 1 ug/mL
Method: as §1

ET140-p25 [9] = biological target: T2, ET140-p25; assay: as above
Method: as §1

ET140-p19 [10] = biological target: T4, ET140-p19; assay: as above
Method: as §1

ET140-p12 [11] = biological target: T5, ET140-p12; assay: as above
Method: as §1

ET140-p31 [12] = biological target: T6, ET140-p31; assay: as above
Method: as §1

ET140-p21 = biological target: T15, ET140-p21; assay: as above
Method: as §1

ET140-p6 [13] = biological target: T11, ET140-p6; assay: as above
Method: as §1

ET140-p27 [14] = biological target: T12, ET140-p27; assay: as above
Method: as §1

ET140-p28 = biological target: T16, ET140-p28; assay: as above
Method: as §1

ET140-p37 = biological target: T17, ET140-p37; assay: as above
Method: as §1

ET140-p13 = biological target: T18, ET140-p13; assay: as above
Method: as §1

ET140-p26 = biological target: T19, ET140-p26; assay: as above
Method: as §1

ET140-p22 = biological target: T20, ET140-p22; assay: as above
Method: as §1

ET140-p17 = biological target: T21, ET140-p17; assay: as above
Method: as §1

ET140-p20 = biological target: T22, ET140-p20; assay: as above
Method: as §1

ET140-p18 = biological target: T23, ET140-p18; assay: as above
Method: as §1

Binder	binding result (ET140-p11 [1])	binding result (ET140-p25 [2])	binding result (ET140-p4)	binding result (ET140-p19 [3])	binding result (ET140-p12 [4])	binding result (ET140-p31 [5])	A450 (ET140-p11 [8])	A450 (ET140-p19 [10])	A450 (ET140-p12 [11])	A450 (ET140-p31 [12])	A450 (ET140-p21)	A450 (ET140-p6 [13])	A450 (ET140-p27 [14])	A450 (ET140-p28)	A450 (ET140-p37)	A450 (ET140-p13)	A450 (ET140-p22)	A450 (ET140-p17)	A450 (ET140-p20)	A450 (ET140-p18)	further results
ET140-204 mIgG1 (antibody, V domains shown, also called ET140-54 mIgG1; ET140-54) VH: EVQLVQSGAEMKKPGASLKLSCKASGYTFIDYYVYWMRQAPGQGLESMGWINPNSGGTNYAQKFQGRVTMTRDTSISTAYMELSRLRSDDTAMYYCARSQRDGYMDYWGQGTLVTVSS VL: QSALTQPASVSASPGQSIAISCTGTSSDVGWYQQHPGKAPKLMIYEDSKRPSGVSNRFSGSKSGNTASLTISGLQAEDEADYYCSSNTRSSTLVFGGGTKLTVLG	no binding (tested: 1 ug/mL)	no binding (tested: 1 ug/mL)	no binding (tested: 1 ug/mL)	no binding (tested: 1 ug/mL)	no binding (tested: 1 ug/mL)	no binding (tested: 1 ug/mL)	0.085	0.099	0.139	0.08	0.077	0.095	0.103	0.093	0.083	0.138	0.111	0.146	0.081	0.105	binding result (ET140-p9): no binding (tested: 1 ug/mL); binding result (ET140-p3): no binding (tested: 1 ug/mL); binding result (ET140-p10): no binding (tested: 1 ug/mL); binding result (ET140-p36): no binding (tested: 1 ug/mL); binding result (ET140-p6 [6]): no binding (tested: 1 ug/mL); binding result (ET140-p27 [7]): no binding (tested: 1 ug/mL); binding result (ET140-p5): no binding (tested: 1 ug/mL); binding result (ET140-p32): no binding (tested: 1 ug/mL); A450 (ET140-p25 [9]): 0.494; A450 (ET140-p26): 0.2
ET140-174 mIgG1 (antibody, V domains shown, also called ET140-24 mIgG1; ET140-24) VH: EVQLVQSGAEVKKPGESLKISCKGSGYSFTSYWIGWVRQMPGKGLEWMGIIYPGDSDTRYSPSFQGHVTISADKSISTAYLQWSSLKASDTAMYYCARYSGSFDNWGQGTLVTVSS VL: not shown	no binding (tested: 1 ug/mL)	no binding (tested: 1 ug/mL)	no binding (tested: 1 ug/mL)	no binding (tested: 1 ug/mL)	no binding (tested: 1 ug/mL)	no binding (tested: 1 ug/mL)	0.094	0.104	0.137	0.085	0.086	0.105	0.1	0.101	0.086	0.143	0.098	0.15	0.083	0.099	binding result (ET140-p9): no binding (tested: 1 ug/mL); binding result (ET140-p3): no binding (tested: 1 ug/mL); binding result (ET140-p10): no binding (tested: 1 ug/mL); binding result (ET140-p36): no binding (tested: 1 ug/mL); binding result (ET140-p6 [6]): no binding (tested: 1 ug/mL); binding result (ET140-p27 [7]): no binding (tested: 1 ug/mL); binding result (ET140-p5): no binding (tested: 1 ug/mL); binding result (ET140-p32): no binding (tested: 1 ug/mL); A450 (ET140-p25 [9]): 0.537; A450 (ET140-p26): 0.212
ET140-153 mIgG1 (antibody, V domains shown, also called ET140-3 mIgG1; ET140-3) VH: QVQLVQSGAEVKKPGSSVKVSCKASGGTFSSYAISWVRQAPGQGLEWMGRIIPILGIANYAQKFQGRVTITADKSTSTAYMELSSLRSEDTAVYYCARGGYYSHDMWSEDWGQGTLVTVSS VL: LPVLTQPPSASGTPGQRVTISCSGRSSNIGSNSVNWYRQLPGAAPKLLIYSNNQRPPGVPVRFSGSKSGTSASLAISGLQSEDEATYYCATWDDNLNVHYVFGTGTKVTVLG	–	–	–	–	–	–	1.07	0.098	2.08	0.107	0.089	0.127	0.12	0.109	0.085	1.03	0.131	0.155	0.087	0.097	–
